Measured values: patent US20240261333A1 (published 2024)

Columns and labels:
Assay in all cases: co-IP, anti-FLAG, N-FLAG B3GNT2 cell lysate, mass spectrometry
SSRP1 = target: T1, SSRP1 (UniProt Q08945 2-709)
T1 construct: also called NP_003137.1 (+3)
Experimental: (§1) Cells were plated in 10-cm cell culture dishes and grown to 60-80% confluency. For each condition, two biological replicates were harvested for co-IP. Cells were washed with PBS and 4 mL of lysis buffer (20 mM HEPES, 1% Triton X-100, 150 mM NaCl, 1 mM EDTA, and 10% glycerol) containing protease inhibitor cocktail was added. Cells were scraped and lysate was incubated at 4° C. under rotary agitation for 1 h. Lysate was centrifuged at 14,000×g for 10 min at 4° C. Supernatant was transferred to a new tube and an aliquot was taken as the input. […] For Western blots, 10 μg/mL Chicken Anti-FLAG (Aves labs ET-DY100) and IgY control (R&D Systems AB-101-C) antibodies were biotinylated (Thermo Fisher Scientific 90407) and added to the respective conditions. Lysates with antibodies were incubated at 4° C. under rotary agitation overnight. For each mL of lysate, 50 μL of Pierce Protein A/G Magnetic Beads (Mass spectrometry; Thermo Fisher Scientific 88803) or Pierce Streptavidin Magnetic Beads (Western blot; Thermo Fisher Scientific 88817) was washed twice with lysis buffer. Lysates with antibodies were added to the beads and incubated at 4° C. under rotary agitation for 4 h. Beads were washed with lysis buffer 3 times and resuspended in lysis buffer for storage.
(§2) Magnetic beads were resuspended in 100 mM Tris pH 7.8, reduced, alkylated and digested with trypsin at 37° ° C. overnight. This solution was subjected to solid phase extraction to concentrate the peptides and remove unwanted reagents followed by injection onto a Shimadzu HPLC with fraction collector. Eight fractions were collected and after concentration were injected on a Waters NanoAcquity HPLC equipped with a self-packed Aeris 3 μm C18 analytical column 0.075 mm by 20 cm, (Phenomenex). Peptides were eluted using standard reverse-phase gradients. The effluent from the column was analyzed using a Thermo Orbitrap Elite mass spectrometer (nanospray configuration) operated in a data dependent manner for 54 minutes. The resulting fragmentation spectra were correlated against the known database using Proteome Discover 1.4 (Thermo Fisher Scientific).

RPS2 = RPS2 (UniProt P15880 2-293)
Experimental: as §1, §2

ARG1 = target: T2, ARG1 (UniProt P05089 1-322)
T2 construct: also called NP_000036.2 (+1)
T2 sequence (looked up): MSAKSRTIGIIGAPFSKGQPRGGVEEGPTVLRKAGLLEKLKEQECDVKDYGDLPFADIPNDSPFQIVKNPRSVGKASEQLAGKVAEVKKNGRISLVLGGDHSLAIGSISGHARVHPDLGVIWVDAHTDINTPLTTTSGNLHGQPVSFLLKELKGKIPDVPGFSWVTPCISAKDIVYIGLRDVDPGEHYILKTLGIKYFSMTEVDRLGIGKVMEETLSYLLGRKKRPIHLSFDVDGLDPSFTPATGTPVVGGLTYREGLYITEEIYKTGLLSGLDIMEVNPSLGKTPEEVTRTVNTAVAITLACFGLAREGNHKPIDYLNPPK
Experimental: as §1, §2

TXN = target: T3, TXN (UniProt P10599 2-105)
T3 construct: also called NP_003320.2
T3 sequence (looked up): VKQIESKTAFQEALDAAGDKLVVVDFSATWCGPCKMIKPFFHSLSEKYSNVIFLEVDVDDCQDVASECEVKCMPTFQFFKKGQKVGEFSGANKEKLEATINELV
Experimental: as §1, §2

RPS16 = RPS16 (UniProt P62249 2-146)
Experimental: as §1, §2

DEFA3 = target: T4, DEFA3 (UniProt P59666 65-94, limits assumed)
T4 construct: also called NP_005208.1 (+1)
T4 sequence (P59666 65-94 limits assumed): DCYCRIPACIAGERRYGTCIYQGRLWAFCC
Experimental: as §1, §2

SRSF1 = target: T5, SRSF1 (UniProt Q07955 2-248)
T5 construct: also called NP_008855.1
T5 sequence (Q07955 2-248 limits assumed): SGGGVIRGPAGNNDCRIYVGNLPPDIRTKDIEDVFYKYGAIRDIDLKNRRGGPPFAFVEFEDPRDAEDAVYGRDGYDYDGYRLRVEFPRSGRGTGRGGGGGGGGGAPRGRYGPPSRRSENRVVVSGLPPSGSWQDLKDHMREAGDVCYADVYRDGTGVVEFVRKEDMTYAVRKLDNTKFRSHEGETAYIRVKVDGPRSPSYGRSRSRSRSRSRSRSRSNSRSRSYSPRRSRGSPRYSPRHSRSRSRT
Experimental: as §1, §2

RPL22 = RPL22 (UniProt P35268 2-128)
Experimental: as §1, §2

DDX20 = target: T6, DDX20 (UniProt Q9UHI6 1-824)
T6 construct: also called NP_009135.4
T6 sequence (looked up): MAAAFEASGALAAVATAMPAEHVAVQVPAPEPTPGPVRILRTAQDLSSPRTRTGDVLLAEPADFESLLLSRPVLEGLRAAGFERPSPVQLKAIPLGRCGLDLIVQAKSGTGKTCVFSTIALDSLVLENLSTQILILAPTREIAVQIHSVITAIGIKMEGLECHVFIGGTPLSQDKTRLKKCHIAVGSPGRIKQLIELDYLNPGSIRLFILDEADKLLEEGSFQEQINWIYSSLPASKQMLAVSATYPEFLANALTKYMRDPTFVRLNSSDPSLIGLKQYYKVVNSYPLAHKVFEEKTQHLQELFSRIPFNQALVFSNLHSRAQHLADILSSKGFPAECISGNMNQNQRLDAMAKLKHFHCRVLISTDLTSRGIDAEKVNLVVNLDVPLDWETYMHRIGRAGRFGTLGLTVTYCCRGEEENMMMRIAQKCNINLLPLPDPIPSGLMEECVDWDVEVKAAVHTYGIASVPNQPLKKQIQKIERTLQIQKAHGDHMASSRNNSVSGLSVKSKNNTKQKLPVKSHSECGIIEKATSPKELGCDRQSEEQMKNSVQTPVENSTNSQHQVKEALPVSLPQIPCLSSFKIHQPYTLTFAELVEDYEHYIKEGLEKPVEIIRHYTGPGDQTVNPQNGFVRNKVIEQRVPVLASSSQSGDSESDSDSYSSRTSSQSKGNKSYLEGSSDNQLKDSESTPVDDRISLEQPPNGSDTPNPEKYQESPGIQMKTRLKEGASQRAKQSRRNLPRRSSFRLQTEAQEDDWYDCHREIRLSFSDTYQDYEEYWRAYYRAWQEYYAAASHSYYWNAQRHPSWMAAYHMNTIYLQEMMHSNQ
Experimental: as §1, §2

RPS13 = RPS13 (UniProt P62277 2-151)
Experimental: as §1, §2

RPS8 = RPS8 (UniProt P62241 2-208)
Experimental: as §1, §2

T1 sequence (Q08945 2-709 limits assumed): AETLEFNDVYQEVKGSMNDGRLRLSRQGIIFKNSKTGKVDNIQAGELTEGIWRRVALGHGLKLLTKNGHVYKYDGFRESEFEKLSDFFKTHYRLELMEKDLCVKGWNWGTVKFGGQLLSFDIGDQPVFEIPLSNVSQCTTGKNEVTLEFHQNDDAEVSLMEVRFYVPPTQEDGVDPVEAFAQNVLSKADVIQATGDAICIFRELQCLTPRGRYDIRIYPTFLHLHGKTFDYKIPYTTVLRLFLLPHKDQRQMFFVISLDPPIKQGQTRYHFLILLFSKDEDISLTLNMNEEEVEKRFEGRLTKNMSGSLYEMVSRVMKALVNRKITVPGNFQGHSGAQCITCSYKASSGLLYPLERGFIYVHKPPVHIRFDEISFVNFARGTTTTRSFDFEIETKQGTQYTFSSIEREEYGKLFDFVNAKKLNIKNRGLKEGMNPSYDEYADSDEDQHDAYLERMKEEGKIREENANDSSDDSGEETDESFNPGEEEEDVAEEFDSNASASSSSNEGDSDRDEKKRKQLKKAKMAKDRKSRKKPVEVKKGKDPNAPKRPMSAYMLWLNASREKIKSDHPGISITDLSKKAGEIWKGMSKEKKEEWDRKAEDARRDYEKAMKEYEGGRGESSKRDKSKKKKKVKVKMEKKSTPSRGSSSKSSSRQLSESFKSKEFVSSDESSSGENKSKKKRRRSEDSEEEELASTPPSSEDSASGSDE

co-IP mass spectrometry count (SSRP1): 0
co-IP mass spectrometry count (RPS2): 13
co-IP mass spectrometry count (ARG1): 8
co-IP mass spectrometry count (TXN): 3
co-IP mass spectrometry count (RPS16): 9
co-IP mass spectrometry count (DEFA3): 5
co-IP mass spectrometry count (SRSF1): 4
co-IP mass spectrometry count (RPL22): 0
co-IP mass spectrometry count (DDX20): 0
co-IP mass spectrometry count (RPS13): 3
co-IP mass spectrometry count (RPS8): 6
B1: N-terminal FLAG tagged B3GNT2 (enzyme, human, UniProt Q9NY97 1-397, looked up)
chain: MSVGRRRIKLLGILMMANVFIYFIMEVSKSSSQEKNGKGEVIIPKEKFWKISTPPEAYWNREQEKLNRQYNPILSMLTNQTGEAGRLSNISHLNYCEPDLRVTSVVTGFNNLPDRFKDFLLYLRCRNYSLLIDQPDKCAKKPFLLLAIKSLTPHFARRQAIRESWGQESNAGNQTVVRVFLLGQTPPEDNHPDLSDMLKFESEKHQDILMWNYRDTFFNLSLKEVLFLRWVSTSCPDTEFVFKGDDDVFVNTHHILNYLNSLSKTKAKDLFIGDVIHNAGPHRDKKLKYYIPEVVYSGLYPPYAGGGGFLYSGHLALRLYHITDQVHLYPIDDVYTGMCLQKLGLVPEKHKGFRTFDIEEKNKNNICSYVDLMLVHSRKPQEMIDIWSQLQSAHLKC
notes: Bait of the co-IP; pulled down with mouse anti-FLAG from cell lysate; also called N-FLAG B3GNT2; N-term FLAG; not shown: FLAG tag at the N-terminus
